Reference: US20230391859A1

How the values were obtained:
[1] = biological target: cardiac amyloid deposits (ATTR amyloid) (UniProt P02766); assay: ex vivo binding to cardiac amyloid in tissue sections, quantified as % of maximum
[2] = biological target: cardiac amyloid deposits (ATTR amyloid) (UniProt P02766); assay: ex vivo binding curve on cardiac tissue sections with amyloid (FIG. 5G)
[3] = biological target: cardiac amyloid deposits (ATTR amyloid) (UniProt P02766); assay: ex vivo binding curve on cardiac tissue sections with amyloid (FIG. 5G); same value in mass units

Work on “murine precursor of PRX004 (mPRX004) (antibody)” yielded an EC50 (read off the curve) [1] of 0.3 µg/mL, a Kd [2] of 1.75 nM and a Kd [3] of 0.26 µg/mL.
